Drawing on article PMC6701479, this text covers kon, τ (off,1) and τ (off,2) for one substance.

For test [1], the target named is H3K9me3 containing chromatin fibers (12 × 601 arrays with recombinant human histone octamer) (human). The experiment in a line: single-molecule TIRF (smTIRF); chromatin fibers immobilised; 3 nM Atto 532-labeled HP1α with 100 nM KAP1; 50 mM Hepes, 130 mM KCl, 10% glycerol; 22°C.
Test [2] has the same target. The experiment in a line: single-molecule TIRF (smTIRF); chromatin fibers immobilised; 3 nM Atto 532-labeled HP1α with 200 nM KAP1; 50 mM Hepes, 130 mM KCl, 10% glycerol; 22°C.
For test [3] the target is unchanged. The test is described as follows: single-molecule TIRF (smTIRF); chromatin fibers immobilised; 3 nM Atto 532-labeled HP1α with 50 nM KAP1; 50 mM Hepes, 130 mM KCl, 10% glycerol; 22°C.
Test [4] shares this target. The test is described as follows: single-molecule TIRF (smTIRF); chromatin fibers immobilised; 3 nM Atto 532-labeled HP1α with 400 nM KAP1; 50 mM Hepes, 130 mM KCl, 10% glycerol; 22°C.

As a reminder, the kon is a measure of how fast the partners come together.

Sequence of Atto 532–labeled HP1α (P45973 whole entry): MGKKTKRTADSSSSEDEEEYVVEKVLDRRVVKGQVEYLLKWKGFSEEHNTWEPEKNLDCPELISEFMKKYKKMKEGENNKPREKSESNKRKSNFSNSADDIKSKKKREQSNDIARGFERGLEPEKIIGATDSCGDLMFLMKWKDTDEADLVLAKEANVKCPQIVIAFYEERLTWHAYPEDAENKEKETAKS

Consider “Atto 532–labeled HP1α (from UniProt P45973 1-191) (natural protein)”, for which the association rate constant (kon) came out at 1.42e+06 M⁻¹ s⁻¹ in test [1], 1.43e+06 M⁻¹ s⁻¹ in test [2], 1.03e+06 M⁻¹ s⁻¹ in test [3] and 770000 M⁻¹ s⁻¹ in test [4]. For the same substance, the τ (off,1) is 0.28 s in test [1], 0.27 s in test [2], 0.29 s in test [3] and 0.23 s in test [4]. The τ (off,2) was 5.79 s in test [1], 5.47 s in test [2], 3.64 s in test [3] and 5.03 s in test [4].
